From publication PMC3561183, “Discovery of a Siderophore Export System Essential for Virulence of Mycobacterium tuberculosis” (PLoS Pathogens, 2013)

Biological target: T1, Loop L1 of MmpL4 (residues 58-199) (Mycobacterium tuberculosis, UniProt P9WJV3 58-199)
T1 construct: MmpL4 of Mycobacterium tuberculosis, predicted loop L1 between TM1 and TM2, residues 58-199; also called L1 loop of MmpL4; periplasmic loop of MmpL4
T1 sequence: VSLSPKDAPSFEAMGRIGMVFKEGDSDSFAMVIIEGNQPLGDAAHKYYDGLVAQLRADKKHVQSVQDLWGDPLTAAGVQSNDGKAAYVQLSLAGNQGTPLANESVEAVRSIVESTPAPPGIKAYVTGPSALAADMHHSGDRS
Test: pull-down
Conditions: both partners purified

B1: C-terminal soluble domain of MmpS4 (residues 52-140) (domain or fragment)
chain: HLTYEIFGPPGTVADISYFDVNSEPQRVDGAVLPWSLHITTNDAAVMGNIVAQGNSDSIGCRITVDGKVRAERVSNEVNAYTYCLVKSA
notes: MmpS4 (rv0451c) of Mycobacterium tuberculosis, residues 52-140: N-terminally truncated, lacks the predicted transmembrane helix; also called MmpS4_(52-140); water-soluble domain of MmpS4
- binding result: binds
